Experimental findings from article PMC5539989 are described below.

The target in the test is GAL4 DBD-BRCA1 wild type (C-terminal region) (human) (UniProt P38398). Kind of test: two-hybrid; mammalian two-hybrid: GAL4 DBD-BRCA1 as bait, VP16 AD-PALB2 as prey, co-transfected with the pG5Luc luciferase reporter and the phGR-TK Renilla control; read-out is luciferase activity above that of the BRCA1 construct alone. On the technique in general: Reporter assays use an easily measured gene product as a stand-in for the process of interest.
UniProt P38398, sequence (P38398 1396-1863): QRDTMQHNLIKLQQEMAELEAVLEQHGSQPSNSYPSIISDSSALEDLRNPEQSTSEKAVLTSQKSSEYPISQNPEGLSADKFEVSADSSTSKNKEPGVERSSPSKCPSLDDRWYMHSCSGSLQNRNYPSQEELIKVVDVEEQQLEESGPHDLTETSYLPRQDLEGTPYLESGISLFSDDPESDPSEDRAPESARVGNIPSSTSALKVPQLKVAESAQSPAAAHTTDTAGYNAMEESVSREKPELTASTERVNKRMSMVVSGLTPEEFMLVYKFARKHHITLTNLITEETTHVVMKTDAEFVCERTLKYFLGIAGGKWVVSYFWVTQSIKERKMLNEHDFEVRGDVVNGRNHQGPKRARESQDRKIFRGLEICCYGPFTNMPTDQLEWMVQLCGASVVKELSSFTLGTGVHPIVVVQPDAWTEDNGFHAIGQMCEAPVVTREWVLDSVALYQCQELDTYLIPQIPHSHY

B1: VP16 AD–PALB2 fusion protein (PALB2 aa 1–319) (domain or fragment)
chain: MDEPPGKPLSCEEKEKLKEKLAFLKREYSKTLARLQRAQRAEKIKHSIKKTVEEQDCLSQQDLSPQLKHSEPKNKICVYDKLHIKTHLDEETGEKTSITLDVGPESFNPGDGPGGLPIQRTDDTQEHFPHRVSDPSGEQKQKLPSRRKKQQKRTFISQERDCVFGTDSLRLSGKRLKEQEEISSKNPARSPVTEIRTHLLSLKSELPDSPEPVTEINEDSVLIPPTAQPEKGVDTFLRRPNFTRATTVPLQTLSDSGSSQHLEHIPPKGSSELTTHDLKNIRFTSPVSLEAQGKKMTVSTDNLLVNKAISKSGQLPTSS
Take B1: the fold increase in luciferase activity with VP16-PALB2 is 3.8 fold.
